Earlier results on eight substances are cited in publication PMC11139829.

The target in series [1] is β-clamp (Escherichia coli) (UniProt P0A988). The series can be described thus: ITC.
Series [2] has the same target. Description: SEC.
The target is the same in series [3]. Description: Fluorescence.
The target is the same in series [4]. The series can be described thus: SPR.
Series [5] has the same target. Description: ITC. The source holds these as a separate data set.
Series [6] has the same target. The series can be described thus: ITC. This is another data set of the same source.
Series [7] has the same target.

Values joined by “and” are separate entries in the source; they are usually repeats but may differ in a detail not shown here. Equal entries are not always repeated. Where two headings read alike, the source gives them in different places. Some results are limits rather than exact numbers.

Sequence of Pol III α (P10443 whole entry): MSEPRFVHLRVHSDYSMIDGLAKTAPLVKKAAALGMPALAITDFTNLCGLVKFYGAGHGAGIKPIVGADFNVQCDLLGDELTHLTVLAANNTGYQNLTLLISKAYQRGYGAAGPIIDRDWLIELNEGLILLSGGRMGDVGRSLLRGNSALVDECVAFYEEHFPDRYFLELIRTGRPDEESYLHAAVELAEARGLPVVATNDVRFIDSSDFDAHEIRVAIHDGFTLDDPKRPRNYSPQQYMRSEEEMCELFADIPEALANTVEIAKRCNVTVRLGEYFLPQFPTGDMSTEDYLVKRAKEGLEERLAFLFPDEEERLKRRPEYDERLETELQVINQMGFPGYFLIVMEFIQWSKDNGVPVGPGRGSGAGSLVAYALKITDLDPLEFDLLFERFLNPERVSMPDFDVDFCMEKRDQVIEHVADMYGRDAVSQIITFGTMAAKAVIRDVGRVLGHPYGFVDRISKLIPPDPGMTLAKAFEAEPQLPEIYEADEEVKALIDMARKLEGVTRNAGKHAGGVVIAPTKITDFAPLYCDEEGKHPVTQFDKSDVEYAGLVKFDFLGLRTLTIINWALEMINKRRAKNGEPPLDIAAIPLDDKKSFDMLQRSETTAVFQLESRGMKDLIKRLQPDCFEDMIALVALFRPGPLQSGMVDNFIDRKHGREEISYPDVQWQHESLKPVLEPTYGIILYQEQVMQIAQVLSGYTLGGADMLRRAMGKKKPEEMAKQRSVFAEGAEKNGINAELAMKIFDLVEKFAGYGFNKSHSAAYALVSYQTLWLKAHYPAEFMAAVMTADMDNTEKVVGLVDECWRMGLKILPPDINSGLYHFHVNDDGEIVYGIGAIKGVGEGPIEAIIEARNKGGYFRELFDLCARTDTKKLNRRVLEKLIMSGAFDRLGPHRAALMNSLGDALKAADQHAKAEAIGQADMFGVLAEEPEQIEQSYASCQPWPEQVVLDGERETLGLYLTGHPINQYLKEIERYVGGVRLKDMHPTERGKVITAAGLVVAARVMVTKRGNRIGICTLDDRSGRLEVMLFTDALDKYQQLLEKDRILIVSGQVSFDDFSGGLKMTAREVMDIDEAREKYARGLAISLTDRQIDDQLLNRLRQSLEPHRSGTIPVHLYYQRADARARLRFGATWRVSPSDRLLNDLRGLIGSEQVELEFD
Sequence of UniProt P0A988 (P0A988 whole entry): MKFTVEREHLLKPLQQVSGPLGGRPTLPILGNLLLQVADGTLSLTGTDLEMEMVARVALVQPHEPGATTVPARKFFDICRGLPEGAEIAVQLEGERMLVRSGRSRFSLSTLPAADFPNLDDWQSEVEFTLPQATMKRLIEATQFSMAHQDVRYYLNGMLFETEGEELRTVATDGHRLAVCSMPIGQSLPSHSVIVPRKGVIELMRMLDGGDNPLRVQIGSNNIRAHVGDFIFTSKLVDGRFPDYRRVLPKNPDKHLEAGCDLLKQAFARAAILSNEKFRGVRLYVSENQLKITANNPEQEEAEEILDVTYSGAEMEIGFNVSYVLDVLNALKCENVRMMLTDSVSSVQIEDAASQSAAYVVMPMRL

Turning to Pol III α (from UniProt P10443), the dissociation constant Kd in series [1] is 1500 nM; in series [2] it was 1200 nM; in series [3], 110 nM; in series [4], 108 nM and 800 nM.

Consider Pol III α C-terminal CBM peptide, for which the Kd in series [1] is 1420 nM; in series [5] it was 3.06 µM; in series [3], 3200 nM and 3000 nM; in series [6], 3.95 µM.

Pol III α internal CBM peptide: the dissociation constant (Kd) in series [1] was > 15000 nM; in series [4], 2700 nM.

In the case of Pol III α + ε (from UniProt P10443), in series [2], the equilibrium dissociation constant (Kd) was 300 nM.

As to Pol III core (from UniProt P10443), the dissociation constant (Kd) was < 5 nM in series [2]; 51 nM and 50 nM in series [3].

As to Pol II (from UniProt P21189), the Kd in series [4] is 31.6 nM; in series [7] it was 120 nM.

As for Pol III ε peptide, the equilibrium dissociation constant (Kd) in series [4] is 210000 nM.

Take Pol II CBM peptide: the values for the Kd in series [1] and in series [3] were 1700 nM and 3500 nM, respectively.
